The record followed here is article PMC13355702.

The target of experiment [1] is BcM60K (metallopeptidase domain of the Bacteroides caccae peptidase_M60 O-glycopeptidase BcM60K) (Bacteroides caccae).

“FRET substrate mNeonGreen-MUC2_R1 linker-mScarlet-I, Tn-modified (domain or fragment)”: the KM of cleavage of the FRET substrate (global fit of progress curves) in the experiment with BT4244 came out at 5.6 µM.

“FRET substrate mNeonGreen-MUC5AC_R2 linker-mScarlet-I, 6SC1-modified (domain or fragment)”: the KM of cleavage of the FRET substrate (global fit of progress curves) in experiment [1] turned out to be 2.5 µM.

Take “FRET substrate mNeonGreen-MUC5AC_R2 linker-mScarlet-I, Tn-modified (domain or fragment)”: the values for the KM of cleavage of the FRET substrate (global fit of progress curves) (with BT4244; in experiment [1]) were 2.9 µM and 7.8 µM, respectively.

As for “FRET substrate mNeonGreen-MUC5AC_R2 linker-mScarlet-I, C2-modified (domain or fragment)”, in experiment [1], the KM of cleavage of the FRET substrate (global fit of progress curves) is 4.5 µM.

As for “FRET substrate mNeonGreen-IgA1 hinge linker-mScarlet-I, Tn-modified (domain or fragment)”, the KM of cleavage of the FRET substrate (global fit of progress curves) with BT4244 worked out at 1 µM.

As for “FRET substrate mNeonGreen-MUC5AC_R2 linker-mScarlet-I, 3SC1-modified (domain or fragment)”, in experiment [1], the KM of cleavage of the FRET substrate (global fit of progress curves) came to 7.6 µM.

Consider “FRET substrate mNeonGreen-MUC5AC_R2 linker-mScarlet-I, C1-modified (domain or fragment)”, for which the KM of cleavage of the FRET substrate (global fit of progress curves) with BT4244 was found to be 2.9 µM; in experiment [1], 6.2 µM.
